Measurements taken from US12540197B2, “Anti-tissue factor antibodies and antibody conjugates, compositions comprising anti-tissue factor antibodies or antibody conjugates, and methods of making and using anti-tissue factor antibodies and antibody conjugates” (SUTRO BIOPHARMA, INC., priority 2023, dated 2026).
Positions count from the first letter of the chain named. Blank lines part the entries; values can stand above or below the molecule they belong to.

Tests used:
human TF = molecular target: T1, human TF (Homo sapiens, UniProt P13726); experiment: Biacore off-rate and kinetic binding, human TF; details: 25° C.; for Biacore human TF single point off-rate kinetics kd: Table 11, humanized rabbit antibodies, 100 nM antigen; for Biacore human TF kinetics ka / Biacore human TF kinetics kd: Table 12, 1:1 Langmuir
T1 construct: purchased Lake Pharma
Protocol: (§1) Anti-Fc polyclonal antibodies were immobilized onto a CM4 chip (Cytiva #BR100534) using amine coupling chemistry (Human Antibody Capture Kit, Cytiva #BR100839). The immobilization steps were carried out at a flow rate of 25 μL/min in 1×HBS-EP+buffer (Cytiva #BR100669). The sensor surfaces were activated for 7 min with a mixture of N-hydroxysuccinimide (NHS, 0.05 M) and 1-ethyl-3-(3-dimethylaminopropyl)-carbodiimide (EDC, 0.2 M). The anti-Fc polyclonal antibodies were injected over all 4 flow cells at a concentration of 25 μg/mL in 10 mM sodium acetate, pH 4.5, for 7 min. Ethanolamine (1 M, pH 8.5) was injected for 7 min to block any remaining activated groups. Approximately 6,000 response units (RU) of capture antibody was immobilized on each flow cell.
(§2) Off-rate and kinetic binding experiments were performed at 25° C. using 1×HBS-EP+buffer. Antibodies were injected over the anti-Fc surface at a concentration of 3 μg/mL for 12 seconds at a flow rate of 10 μL/min on flow cells 2, 3 and 4, followed by a buffer wash for 30 seconds at the same flow rate. Single point off-rate analysis was carried out using an antigen concentration of 100 nM. […] After capturing ligand (antibody) on the anti-Fc surface, the analyte (human TF, Lake Pharma; cynomolgus TF, Sino Bio #90885-C08H; mouse TF, R&D Systems #3178-PA) was bound for 180 seconds, followed by a 420 second dissociation phase at a flow rate of 50 μL/min. Between each ligand capture and analyte binding cycle, regeneration was carried out using 2 injections of 10 mM glycine pH 2.0 for 30 seconds at 30 μL/min, followed by a 30 second buffer wash step.
(§3) The data were fit with the Biacore T200 Evaluation software, using a 1:1 Langmuir binding model. KD (affinity, nM) was determined as a ratio of the kinetic rate constants calculated from the fits of the association and dissociation phases.
(§4) Anti-Fc polyclonal antibodies were immobilized onto a CM4 chip (Cytiva #BR100534) using amine coupling chemistry (Human Antibody Capture Kit, Cytiva #BR100839). The immobilization steps were carried out at a flow rate of 25 μL/min in 1×HBS-EP+buffer (Cytiva #BR100669). The sensor surfaces were activated for 7 min with a mixture of NHS (0.05 M) and EDC (0.2 M). The Anti-Fc antibodies were injected over all 4 flow cells at a concentration of 25 ug/ml in 10 mM sodium acetate, pH 4.5, for 7 min. Ethanolamine (1 M, pH 8.5) was injected for 7 min to block any remaining activated groups. Approximately 6,000 response units (RU) of capture antibody was immobilized on each flow cell. Off-rate and kinetic binding experiments were performed at 25° C. using 1×HBS-EP+buffer. Antibodies or ADCs were injected over the anti-Fc surface at a concentration of 3 μg/mL for 12 seconds at a flow rate of 10 μL/min on flow cells 2, 3 and 4, followed by a buffer wash for 30 seconds at the same flow rate. […] After capturing ligand (antibody) on the anti-Fc surface, the analyte (human TF, Lake Pharma; cynomolgus TF, Sino Bio #90885-C08H; mouse TF, R&D Systems #3178-PA) was bound for 180 seconds, followed by a 420 second dissociation phase at a flow rate of 50 μL/min. Between each ligand capture and analyte binding cycle, regeneration was carried out using 2 injections of 10 mM Glycine pH 2.0 for 30 seconds at 30 μL/min, followed by a 30 second buffer wash step. The data was fit with the Biacore T200 Evaluation software, using a 1-1 Langmuir binding model. KD (affinity, nM) was determined as a ratio of the kinetic rate constants calculated from the fits of the association and dissociation phases.

cynomolgus TF = experiment: Biacore off-rate and kinetic binding, cynomolgus TF; details: 25° C.; for Biacore cynomolgus TF single point off-rate kinetics kd: Table 11, humanized rabbit antibodies, 100 nM antigen; for Biacore cynomolgus TF kinetics ka / Biacore cynomolgus TF kinetics kd: Table 12, 1:1 Langmuir
Protocol: as §1, §2, §3, §4

[1] = DSF protein thermal shift assay (melting temperatures TM1/TM2); type: physicochemical; details: Table 8, humanized rabbit antibodies; TM2 = Fab domain
Protocol: (§5) A protein thermal shift assay was carried out by mixing the protein to be assayed with an environmentally sensitive dye (SYPRO Orange, Life Technologies #S-6650) and monitoring the fluorescence of the mixture in real time as it underwent controlled thermal denaturation. Protein solutions between 0.2-2 mg/mL were mixed at a 1:1 volumetric ratio with a solution of SYPRO Orange solution diluted 250-fold in PBS+10% sucrose. 10 μL aliquots of the protein-dye mixture were dispensed in quadruplicate in a 384-well microplate (Bio-Rad #MSP-3852). The plate was sealed with an optically clear sealing film (Bio-Rad #MSB-1001) and placed in a 384-well plate real-time thermocycler (Bio-Rad CFX384 Real Time System). The protein-dye mixture was heated from 25° C. to 95° C., at increments of 0.2° C. per cycle, allowing 3 seconds of equilibration at each temperature before taking a fluorescence measurement. At the end of the experiment, the transition melting temperatures (TM1 and TM2) were determined using the Bio-Rad CFX manager software. TM1 represents the melting temperature of the Fc domain. TM2 represents the melting temperature of the Fab domain.
as §5, with “solutions at 1” for “solutions between 0.2-2”, “a 1-1” for “a 1:1”, “sucrose. 5” for “sucrose. 10”

HEK293T = experiment: FACS cell-binding assay on parental HEK293T cells; details: Table 16, parental cells
From the text: HEK293T, BxPC3 cells (TF positive) and NCI-H1703 (TF negative) cells were obtained from ATCC (American Type Culture Collection) and maintained in DMEM:F12 (1:1), high glucose (Corning) supplemented with 10% heat-inactivated fetal bovine serum (ThermoScientific), 1× Penicillin/Streptomycin (Corning) and 2 mmol glutamax (Thermo Fisher Scientific). To generate cells that stably expressing human tissue factor (HEK293T-humanTF) or cynomolgus tissue factor (HEK293T-cynoTF), HEK293T cells were transfected with plasmid vectors that contain the corresponding protein sequence and stable clones were selected with puromycin.
For a fluorescence-activated cell sorting (FACS) cell-binding assay, cells were collected by Accutase and counted by the Vi-CELL Cell Viability Analyzersharvested and, then re-suspended in FACS buffer (DPBS buffer supplemented with 1% bovine serum albumin). A total of 200,000 cells in 100 μL were incubated on ice with 100 μL of anti-TF antibodies in each well of a 96-well plate. Cells were washed twice with ice-cold FACS buffer and then incubated on ice for 60 mins with 5 μg/mL Alexa 647-labeled donkey anti-human Fc antibody (Jackson ImmunoResearch). Unstained cells and cells stained with secondary antibody alone were used as controls. Cells were washed twice with FACS buffer and analyzed using a BD FACS Canto system. Geometric mean fluorescence intensities (MFI) were fitted using non-linear regression analysis with one site specific binding equation on GraphPad Prism (GraphPad Software; La Jolla, CA).

T1 sequence (P13726 33-295): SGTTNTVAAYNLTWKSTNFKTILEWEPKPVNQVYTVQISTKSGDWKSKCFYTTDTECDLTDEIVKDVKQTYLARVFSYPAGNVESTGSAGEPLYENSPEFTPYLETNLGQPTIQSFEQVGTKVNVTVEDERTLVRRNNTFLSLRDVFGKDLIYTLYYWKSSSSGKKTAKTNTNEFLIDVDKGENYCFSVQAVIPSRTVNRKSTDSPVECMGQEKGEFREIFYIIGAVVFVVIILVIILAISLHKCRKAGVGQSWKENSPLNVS
Sequence of cynomolgus TF (as listed by the source): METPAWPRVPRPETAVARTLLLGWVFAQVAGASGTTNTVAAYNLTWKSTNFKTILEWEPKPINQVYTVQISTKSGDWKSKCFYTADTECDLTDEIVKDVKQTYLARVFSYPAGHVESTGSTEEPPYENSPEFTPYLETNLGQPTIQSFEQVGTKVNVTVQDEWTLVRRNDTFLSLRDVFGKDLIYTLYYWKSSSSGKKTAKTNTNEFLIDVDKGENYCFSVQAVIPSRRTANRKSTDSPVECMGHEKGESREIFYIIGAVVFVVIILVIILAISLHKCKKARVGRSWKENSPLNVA

Biacore human TF single point off-rate kinetics kd (human TF): 0.00054 s⁻¹
Biacore cynomolgus TF single point off-rate kinetics kd (cynomolgus TF): 0.00117 s⁻¹
B1: 2842-B01 HC1/LC3 (antibody)
heavy: MQVQVVESGGGLVKPGGSLRLSCAASGFSISSYDMSWIRQAPGKGLEWIGIIGSNGRTYYADSVKGRFTISRNTNENTVYLQMNSLRAEDTAVYYCARGLYDGTGNIWGQGTLVTVSSASTKGPSVFPLAPSSKSTSGGTAALGCLVKDYFPEPVTVSWNSGALTSGVHTFPAVLQSSGLSLSSVVTVPSSSLGTQTYICNVNHKPSNTKVDKKVEPKSCDKTHTCPPCPAPELLGGPSVFLFPPKPKDTLMISRTPEVTCVVVDVSHEDPEVKFNWYVDGVEVHNAKTKPREEQYNSTYRVVSVLTVLHQDWLNGKEYKCKVSNKALPAPIEKTISKAKGQPREPQVYTLPPSREEMTKNQVSLTCLVKGFYPSDIAVEWESNGQPENNYKTTPPVLDSDGSFLYSKLTVDKSRWQQGNVFSCSVMHEALHNHYTQKSLSLSPGK
light: MDIQMTQSPSSLSASVGDRVTITCQASQSVYGNNWLSWYQQKPGKAPKLLIYGASKLASGVPSRFSGSGSGTDFTLTISSLQPEDFATYYCQGTYYSGDWYFAFGGGTKVEIKRTVAAPSVFIFPPSDEQLKSGTASVVCLLNNFYPREAKVQWKVDNALQSGNSQESVTEQDSKDSTYSLSSTLTLSKADYEKHKVYACEVTHQGLSSPVTKSFNRGEC
modifications: conjugated to LP1 at Y180/F404
DSF TM2 (° C.) [1]: 87.6 °C

Biacore human TF kinetics ka (human TF): 54000 M⁻¹ s⁻¹
Biacore human TF kinetics kd (human TF): 0.000422 s⁻¹
Biacore cynomolgus TF kinetics ka (cynomolgus TF): 82700 M⁻¹ s⁻¹
Biacore cynomolgus TF kinetics kd (cynomolgus TF): 0.00166 s⁻¹
B2: 47 (antibody)
heavy: B1 heavy with Q2E, V5L, K14Q, I38V, A61P, N73D, T74N, N75S, E76K, Y80T
light: B1 light with I3L, Q25R, D73Q, G106Q
modifications: pAzMeF at Y180/F404; conjugate
HEK293T Bmax (MFI) (HEK293T): 1285 MFI

Biacore human TF kinetics ka (human TF): 71200 M⁻¹ s⁻¹
Biacore human TF kinetics kd (human TF): 0.00124 s⁻¹
Biacore cynomolgus TF kinetics ka (cynomolgus TF): 121000 M⁻¹ s⁻¹
Biacore cynomolgus TF kinetics kd (cynomolgus TF): 0.00735 s⁻¹
B3: 48 (antibody)
heavy: B1 heavy
light: B1 light
modifications: pAzMeF at Y180/F404; conjugate
HEK293T Bmax (MFI) (HEK293T): 1232 MFI

Biacore human TF single point off-rate kinetics kd (human TF): 0.000691 s⁻¹
Biacore cynomolgus TF single point off-rate kinetics kd (cynomolgus TF): 0.00142 s⁻¹
B4: 2842-B01 HC1/LC2 (antibody, V domains shown)
VH: MQVQVVESGGGLVKPGGSLRLSCAASGFSISSYDMSWIRQAPGKGLEWIGIIGSNGRTYYADSVKGRFTISRNTNENTVYLQMNSLRAEDTAVYYCARGLYDGTGNIWGQGTLVTVSS
VL: MELVMTQSPPTLSLSPGERVTLSCRASQSVYGNNWLSWYQQKPGQAPRLLIYGASKLATSIPARFSGSGSGTQFTLTISSLQPEDFAVYYCQGTYYSGDWYFAFGQGTKVEIK
DSF TM2 (° C.) [1]: 82.4 °C

Biacore human TF kinetics ka (human TF): 62500 M⁻¹ s⁻¹
Biacore human TF kinetics kd (human TF): 0.000865 s⁻¹
Biacore cynomolgus TF kinetics ka (cynomolgus TF): 80800 M⁻¹ s⁻¹
Biacore cynomolgus TF kinetics kd (cynomolgus TF): 0.00241 s⁻¹
B5: 49 (antibody)
heavy: MQVQVQESGPGLVKPPGTLSLTCAVSGFSLSYYGVSWVRQPPGKGLEWIGTIDSSGRTYYNPSLKSRVTISNDNAPNTVSLKLSSVTAADTAVYYCARDFYGWNSGALDIWGQGTLVTVSSASTKGPSVFPLAPSSKSTSGGTAALGCLVKDYFPEPVTVSWNSGALTSGVHTFPAVLQSSGLSLSSVVTVPSSSLGTQTYICNVNHKPSNTKVDKKVEPKSCDKTHTCPPCPAPELLGGPSVFLFPPKPKDTLMISRTPEVTCVVVDVSHEDPEVKFNWYVDGVEVHNAKTKPREEQYNSTYRVVSVLTVLHQDWLNGKEYKCKVSNKALPAPIEKTISKAKGQPREPQVYTLPPSREEMTKNQVSLTCLVKGFYPSDIAVEWESNGQPENNYKTTPPVLDSDGSFLYSKLTVDKSRWQQGNVFSCSVMHEALHNHYTQKSLSLSPGK
light: MDLQLTQSPSTLSASVGDRVTITCRASQSVYSNKYLSWYQQKPGKAPKLLIYKASTLASGVPSRFSGSGSGTEFTLTISSLQPDDFATYYCAAAYSDDSDTAFGQGTKVEIKRTVAAPSVFIFPPSDEQLKSGTASVVCLLNNFYPREAKVQWKVDNALQSGNSQESVTEQDSKDSTYSLSSTLTLSKADYEKHKVYACEVTHQGLSSPVTKSFNRGEC
modifications: pAzMeF at Y180/F404; conjugate
HEK293T Bmax (MFI) (HEK293T): 1366 MFI
